Among the data in US20100203582 are Km, kcat and kcat/Km values, retold here.

For this data set, the target named is T1, peptide SAVLQMGFRK, Substrate (7).
T1 chain: SAVLQMGFRK

B1: wild-type severe acute respiratory syndrome-associated coronavirus 3C-like protease (SARS-CoV 3CL^pro) (protein)
chain: SGFRKMAFPSGKVEGCMVQVTCGTTTLNGLWLDDTVYCPRHVICTAEDMLNPNYEDLLIRKSNHSFLVQAGNVQLRVIGHSMQNCLLRLKVDTSNPKTPKYKFVRIQPGQTFSVLACYNGSPSGVYQCAMRPNHTIKGSFLNGSCGSVGFNIDYDCVSFCYMHHMELPTGVHAGTDLEGKFYGPFVDRQTAQAAGTDTTITLNVLAWLYAAVINGDRWFLNRFTTTLNDFNLVAMKYNYEPLTQDHVDILGPLSAQTGIAVLDMCAALKELLQNGMNGRTILGSTILEDEFTPFDVVRQCSGVTFQ
For the protein B1, the Km entry is reported as “Km is 76.6±3.5 µM”, the kcat result is on record as “kcat is 1.6±0.2 min^-1” and the kcat/Km result is listed as “kcat/Km=0.02 µM^-1min^-1”.
